B1: Kinesin-like protein KIF24 (Homo sapiens), Q5T7B8 (parent)
chain: MASWLYECLCEAELAQYYSHFTALGLQKIDELAKITMKDYSKLGVHDMNDRKRLFQLIKIIKIMQEEDKAVSIPERHLQTSSLRIKSQELRSGPRRQLNFDSPADNKDRNASNDGFEMCSLSDFSANEQKSTYLKVLEHMLPDDSQYHTKTGILNATAGDSYVQTEISTSLFSPNYLSAILGDCDIPIIQRISHVSGYNYGIPHSCIRQNTSEKQNPWTEMEKIRVCVRKRPLGMREVRRGEINIITVEDKETLLVHEKKEAVDLTQYILQHVFYFDEVFGEACTNQDVYMKTTHPLIQHIFNGGNATCFAYGQTGAGKTYTMIGTHENPGLYALAAKDIFRQLEVSQPRKHLFVWISFYEIYCGQLYDLLNRRKRLFAREDSKHMVQIVGLQELQVDSVELLLEVILKGSKERSTGATGVNADSSRSHAVIQIQIKDSAKRTFGRISFIDLAGSERAADARDSDRQTKMEGAEINQSLLALKECIRALDQEHTHTPFRQSKLTQVLKDSFIGNAKTCMIANISPSHVATEHTLNTLRYADRVKELKKGIKCCTSVTSRNRTSGNSSPKRIQSSPGALSEDKCSPKKVKLGFQQSLTVAAPGSTRGKVHPLTSHPPNIPFTSAPKVSGKRGGSRGSPSQEWVIHASPVKGTVRSGHVAKKKPEESAPLCSEKNRMGNKTVLGWESRASGPGEGLVRGKLSTKCKKVQTVQPVQKQLVSRVELSFGNAHHRAEYSQDSQRGTPARPASEAWTNIPPHQKEREEHLRFYHQQFQQPPLLQQKLKYQPLKRSLRQYRPPEGQLTNETPPLFHSYSENHDGAQVEELDDSDFSEDSFSHISSQRATKQRNTLENSEDSFFLHQTWGQGPEKQVAERQQSLFSSPRTGDKKDLTKSWVDSRDPINHRRAALDHSCSPSKGPVDWSRENSTSSGPSPRDSLAEKPYCSQVDFIYRQERGGGSSFDLRKDASQSEVSGENEGNLPSPEEDGFTISLSHVAVPGSPDQRDTVTTPLREVSADGPIQVTSTVKNGHAVPGEDPRGQLGTHAEYASGLMSPLTMSLLENPDNEGSPPSEQLVQDGATHSLVAESTGGPVVSHTVPSGDQEAALPVSSATRHLWLSSSPPDNKPGGDLPALSPSPIRQHPADKLPSREADLGEACQSRETVLFSHEHMGSEQYDADAEETGLDGSWGFPGKPFTTIHMGVPHSGPTLTPRTGSSDVADQLWAQERKHPTRLGWQEFGLSTDPIKLPCNSENVTWLKPRPISRCLARPSSPLVPSCSPKTAGTLRQPTLEQAQQVVIRAHQEQLDEMAELGFKEETLMSQLASNDFEDFVTQLDEIMVLKSKCIQSLRSQLQLYLTCHGPTAAPEGTVPS
partner: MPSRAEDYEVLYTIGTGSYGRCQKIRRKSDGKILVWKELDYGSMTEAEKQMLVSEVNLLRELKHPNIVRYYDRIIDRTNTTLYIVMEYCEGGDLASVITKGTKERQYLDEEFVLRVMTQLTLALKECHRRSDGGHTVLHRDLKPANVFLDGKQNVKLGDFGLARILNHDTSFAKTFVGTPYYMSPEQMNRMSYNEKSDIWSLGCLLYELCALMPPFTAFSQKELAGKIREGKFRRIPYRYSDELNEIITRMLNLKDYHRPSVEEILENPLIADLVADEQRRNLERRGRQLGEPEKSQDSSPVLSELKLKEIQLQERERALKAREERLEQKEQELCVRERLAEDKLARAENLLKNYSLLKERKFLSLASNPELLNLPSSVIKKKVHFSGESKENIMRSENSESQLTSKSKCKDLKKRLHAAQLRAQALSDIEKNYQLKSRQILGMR

Variants of: B1
Details: with nek2_human NEK2, P51955

| effect of a mutation on the interaction | Variant |
| --- | --- |
| decreasing interaction | T621A;S622A |
